Test results as given in the Immune Epitope Database (IEDB).

Key:
HLA-B*46:01 = test: IEDB peptide-MHC binding, purified MHC/direct/fluorescence; filed as Kd, often an IC50 or EC50 that approximates it; ≥ and ≤ were set here for values at or beyond the usual limits of such assays
HLA-A*31:01 = test: as above
HLA-B*07:02 = test: as above
HLA-B*58:01 [1] = test: as above
HLA-B*44:02 = test: as above
HLA-B*40:01 = test: as above
HLA-B*08:01 [2] = test: as above
HLA-A*11:01 = test: as above
HLA-B*15:01 = test: as above
HLA-A*03:01 = test: as above
HLA-B*15:02 = test: as above
HLA-A*26:01 [3] = test: as above
HLA-A*02:01 [4] = test: as above
HLA-A*01:01 = test: as above
HLA-A*69:01 [5] = test: as above
HLA-B*35:01 [6] = test: as above
HLA-B*48:01 = test: IEDB peptide-MHC binding, purified MHC/competitive/fluorescence; filed as Kd, often an IC50 or EC50 that approximates it; ≥ and ≤ were set here for values at or beyond the usual limits of such assays
HLA-B*39:01 = test: as above; settings: source organism: Zaire ebolavirus
HLA-A*26:01 [7] = test: as above; settings: source organism: Zaire ebolavirus
HLA-A*02:01 [8] = test: as above; settings: source organism: Zaire ebolavirus
HLA-A*69:01 [9] = test: as above; settings: source organism: Zaire ebolavirus
HLA-B*27:03 = test: as above; settings: source organism: Zaire ebolavirus
HLA-B*35:01 [10] = test: as above
HLA-A*68:02 = test: IEDB peptide-MHC binding, purified MHC/direct/fluorescence; filed as Kd, often an IC50 or EC50 that approximates it; ≥ and ≤ were set here for values at or beyond the usual limits of such assays; settings: source organism: Zaire ebolavirus
HLA-A*02:19 = test: as above; settings: source organism: Zaire ebolavirus
HLA-A*02:12 = test: as above; settings: source organism: Zaire ebolavirus
HLA-A*02:03 = test: as above; settings: source organism: Zaire ebolavirus
HLA-A*02:16 = test: as above; settings: source organism: Zaire ebolavirus
HLA-C*14:02 [11] = test: as above
HLA-B*27:05 = test: as above
HLA-B*83:01 = test: IEDB peptide-MHC binding, purified MHC/competitive/fluorescence; filed as Kd, often an IC50 or EC50 that approximates it; ≥ and ≤ were set here for values at or beyond the usual limits of such assays
HLA-A*68:23 = test: as above
HLA-B*08:01 [12] = test: as above; settings: source organism: Salmonella enterica subsp. enterica serovar Typhi
HLA-B*15:42 = test: as above
HLA-B*45:06 = test: as above
HLA-B*51:01 = test: as above; settings: source organism: Salmonella enterica subsp. enterica serovar Typhi
HLA-C*05:01 = test: IEDB peptide-MHC binding, purified MHC/direct/fluorescence; filed as Kd, often an IC50 or EC50 that approximates it; ≥ and ≤ were set here for values at or beyond the usual limits of such assays; settings: source organism: Salmonella enterica subsp. enterica serovar Typhi str. CT18
HLA-A*32:15 = test: IEDB peptide-MHC binding, purified MHC/competitive/fluorescence; filed as Kd, often an IC50 or EC50 that approximates it; ≥ and ≤ were set here for values at or beyond the usual limits of such assays
HLA-A*32:07 = test: as above
HLA-B*40:13 = test: as above
HLA-C*15:02 = test: IEDB peptide-MHC binding, purified MHC/direct/fluorescence; filed as Kd, often an IC50 or EC50 that approximates it; ≥ and ≤ were set here for values at or beyond the usual limits of such assays; settings: source organism: Entamoeba histolytica HM-1:IMSS
HLA-C*06:02 = test: as above; settings: source organism: Entamoeba histolytica HM-1:IMSS
HLA-B*58:01 [13] = test: IEDB peptide-MHC binding, purified MHC/competitive/fluorescence; filed as Kd, often an IC50 or EC50 that approximates it; ≥ and ≤ were set here for values at or beyond the usual limits of such assays; settings: source organism: Yersinia pestis Nepal516
HLA-C*14:02 [14] = test: as above; settings: source organism: Yersinia pestis Nepal516
[15] = source organism: Yersinia pestis Antiqua
[16] = source organism: Yersinia pestis
[17] = source organism: Entamoeba histolytica HM-1:IMSS
[18] = source organism: Zaire ebolavirus
[19] = source organism: Vibrio vulnificus
[20] = source organism: Salmonella enterica subsp. enterica serovar Typhi
[21] = source organism: Escherichia coli O157:H7
[22] = source organism: Escherichia coli
[23] = source organism: Yersinia pestis Nepal516

FQLYSDLAH
Kd (HLA-B*46:01; [15]): 2270 nM | Kd (HLA-A*31:01; [15]): ≥ 20000 nM | Kd (HLA-B*07:02; [15]): ≥ 20000 nM | Kd (HLA-B*58:01 [1]; [15]): ≥ 20000 nM | Kd (HLA-B*44:02; [15]): ≥ 20000 nM | Kd (HLA-B*40:01; [15]): ≥ 20000 nM | Kd (HLA-B*08:01 [2]; [15]): ≥ 20000 nM | Kd (HLA-A*11:01; [15]): ≥ 20000 nM | Kd (HLA-B*15:01; [16]): 68.2 nM | Kd (HLA-A*03:01; [15]): ≥ 20000 nM | Kd (HLA-B*15:02; [15]): 25.9 nM | Kd (HLA-A*26:01 [3]; [15]): ≥ 20000 nM | Kd (HLA-A*02:01 [4]; [16]): 1910 nM | Kd (HLA-A*01:01; [15]): ≥ 20000 nM | Kd (HLA-A*69:01 [5]; [15]): ≥ 20000 nM | Kd (HLA-B*35:01 [6]; [16]): 860 nM

KEFNGPAML
Kd (HLA-B*48:01; [17]): 438 nM

KVYWAGIEF
Kd (HLA-B*39:01): ≥ 20000 nM | Kd (HLA-A*26:01 [7]): ≥ 20000 nM | Kd (HLA-A*02:01 [8]): ≥ 20000 nM | Kd (HLA-A*69:01 [9]): ≥ 20000 nM | Kd (HLA-B*27:03): ≥ 20000 nM | Kd (HLA-B*35:01 [10]; [18]): 114 nM | Kd (HLA-A*68:02): ≥ 20000 nM | Kd (HLA-A*02:19): ≥ 20000 nM | Kd (HLA-A*02:12): ≥ 20000 nM | Kd (HLA-A*02:03): ≥ 20000 nM | Kd (HLA-A*02:16): ≥ 20000 nM | Kd (HLA-B*15:01; source organism: Ebola virus - Gabon (1994-1997)): 133 nM | Kd (HLA-C*14:02 [11]; [18]): 18 nM

LLTQSNAGF
Kd (HLA-B*46:01; [19]): ≥ 20000 nM | Kd (HLA-A*31:01; [19]): ≥ 20000 nM | Kd (HLA-B*07:02; [19]): ≥ 20000 nM | Kd (HLA-B*44:02; [19]): ≥ 20000 nM | Kd (HLA-B*40:01; [19]): ≥ 20000 nM | Kd (HLA-B*27:05; [19]): ≥ 20000 nM | Kd (HLA-B*08:01 [2]; [19]): ≥ 20000 nM | Kd (HLA-A*11:01; [19]): ≥ 20000 nM | Kd (HLA-B*15:01; [19]): 146 nM | Kd (HLA-A*03:01; [19]): ≥ 20000 nM | Kd (HLA-B*15:02; source organism: Vibrio vulnificus CMCP6): 49 nM | Kd (HLA-A*26:01 [3]; [19]): ≥ 20000 nM | Kd (HLA-A*01:01; [19]): ≥ 20000 nM | Kd (HLA-A*69:01 [5]; [19]): ≥ 20000 nM | Kd (HLA-B*35:01 [6]; [19]): 345 nM

MPFIATPPV
Kd (HLA-B*83:01; [20]): 62.6 nM | Kd (HLA-A*68:23; [20]): 2.1 nM | Kd (HLA-B*08:01 [12]): 1440 nM | Kd (HLA-B*15:42; [20]): ≥ 5000 nM | Kd (HLA-B*45:06; [20]): ≥ 5000 nM | Kd (HLA-B*51:01): 567 nM | Kd (HLA-B*35:01 [10]; [20]): ≤ 0.1 nM | Kd (HLA-C*05:01): ≥ 20000 nM

RQQAIVDLL
Kd (HLA-B*48:01; source organism: Shigella flexneri 5 str. 8401): 153 nM

SMFERDFHF
Kd (HLA-B*83:01; [17]): ≥ 5000 nM | Kd (HLA-A*32:15; [17]): 31.6 nM | Kd (HLA-A*32:07; [17]): 9.3 nM | Kd (HLA-B*15:42; [17]): ≥ 5000 nM | Kd (HLA-B*45:06; [17]): ≥ 5000 nM | Kd (HLA-B*40:13; [17]): 2.8 nM | Kd (HLA-C*15:02): ≥ 20000 nM | Kd (HLA-A*02:01 [4]; [17]): 4 nM | Kd (HLA-C*14:02 [11]; [17]): 3270 nM | Kd (HLA-C*06:02): 1720 nM | Kd (HLA-A*69:01 [5]; [17]): ≥ 5000 nM

YLGTPNNTY
Kd (HLA-B*46:01; [21]): ≥ 20000 nM | Kd (HLA-A*31:01; [21]): ≥ 20000 nM | Kd (HLA-B*07:02; [21]): ≥ 20000 nM | Kd (HLA-B*58:01 [1]; [21]): ≥ 20000 nM | Kd (HLA-B*44:02; [21]): ≥ 20000 nM | Kd (HLA-B*40:01; [21]): ≥ 20000 nM | Kd (HLA-B*27:05; [21]): ≥ 20000 nM | Kd (HLA-B*08:01 [2]; [21]): ≥ 20000 nM | Kd (HLA-A*11:01; [21]): ≥ 20000 nM | Kd (HLA-B*15:01; [22]): 137 nM | Kd (HLA-A*03:01; [21]): ≥ 20000 nM | Kd (HLA-B*15:02; [21]): 9.4 nM | Kd (HLA-A*26:01 [3]; [21]): ≥ 20000 nM | Kd (HLA-A*02:01 [4]; [21]): ≥ 20000 nM | Kd (HLA-A*01:01; [22]): 284 nM | Kd (HLA-A*69:01 [5]; [21]): ≥ 20000 nM | Kd (HLA-B*35:01 [6]; [22]): 325 nM

YSLMSRYQF
Kd (HLA-B*58:01 [13]): 16.2 nM | Kd (HLA-B*83:01; [23]): ≥ 5000 nM | Kd (HLA-A*32:15; [23]): 58.2 nM | Kd (HLA-A*68:23; [23]): 29.5 nM | Kd (HLA-A*32:07; [23]): 25.8 nM | Kd (HLA-B*15:42; [23]): ≥ 5000 nM | Kd (HLA-B*45:06; [23]): ≥ 5000 nM | Kd (HLA-C*14:02 [14]): 43 nM | Kd (HLA-B*40:13; [23]): 13.2 nM
